We go through one substance from patent CN113512118A.

The target of the assay is sCD146蛋白 (CD146胞外区蛋白, Sino Biological 10115-H08H-20) (human) (UniProt P43121). The assay can be described thus: BLI (Octet Red96), against parental AA98. On the technique in general: BLI is a label-free optical method that tracks binding on a fibre tip over time.
UniProt P43121, sequence (P43121 24-559): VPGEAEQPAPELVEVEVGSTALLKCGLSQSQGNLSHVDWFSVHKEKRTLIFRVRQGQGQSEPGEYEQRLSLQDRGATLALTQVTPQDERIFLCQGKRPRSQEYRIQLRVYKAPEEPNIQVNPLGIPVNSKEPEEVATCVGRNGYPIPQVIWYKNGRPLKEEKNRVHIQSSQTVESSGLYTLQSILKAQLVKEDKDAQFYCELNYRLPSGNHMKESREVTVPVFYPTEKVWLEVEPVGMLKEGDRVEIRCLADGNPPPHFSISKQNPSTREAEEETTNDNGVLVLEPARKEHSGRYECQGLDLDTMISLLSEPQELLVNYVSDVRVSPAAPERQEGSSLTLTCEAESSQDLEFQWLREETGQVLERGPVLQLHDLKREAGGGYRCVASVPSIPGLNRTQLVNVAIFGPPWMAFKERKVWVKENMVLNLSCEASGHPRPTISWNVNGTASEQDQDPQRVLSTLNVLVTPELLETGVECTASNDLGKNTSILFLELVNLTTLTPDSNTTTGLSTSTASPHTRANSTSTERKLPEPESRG

As for “H13-112抗体 (AA98 variant, heavy chain I28K and light chain L51Y) (antibody)”, the fold increase of affinity against AA98 was 10 fold.
